Experimental data: the supplement of paper PMC11865577

How the values were obtained:
Test in all cases: pull-down binding Z-score (relative to library population); higher = stronger binding
Conditions in all cases: RNA library: Library-2
[1] = test system: TO-3-N3-2 (biotin conjugate)
Outline: (§1)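 Streptavidin beads bearing 100 pmol of a biotin-conjugated small molecule were incubated for 60 min at 25 °C with 1 μg of heat-folded, Cy5- or Cy3-end-labelled RNA library in phosphate/NaCl/KCl buffer. Hot SDS eluted the RNA that stayed bound after three washes, and this RNA was hybridised for 20 h at 55.5 °C to a DNA barcode microarray. Binding was expressed as a Z-score against the library mean and standard deviation, after subtraction of a beads-only signal and trimmed averaging of barcoded replicate probes.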

[2] = test system: TO-N3-2 (biotin conjugate)
Outline: as §1

[3] = test system: TO-3-N3 (biotin conjugate)
Outline: as §1

TO-N3 (biotin conjugate) = test system: TO-N3 (biotin conjugate)
Outline: as §1

Sequence | pull-down binding Z-score [1] | pull-down binding Z-score [2] | pull-down binding Z-score [3] | pull-down binding Z-score (TO-N3 (biotin conjugate))
GAGGUGAGCAGGAUACUUACCUG [U1snRNP5ss-16] | -0.182 | 0.602 | -0.342 | 0.0508
CAUCGUUGAUAGUG [SHAPE_invitro_SARS-CoV-2_Motif_152] | 0.263 | 0.588 | 0.718 | 0.76
UGGGGACCAGGAACUAAUCAGACAAGGAACUGAUUACAAACAUUGGCCGCAAAUUGCACAAUUUGCCCCCA | 0.0998 | 0.83 | -0.075 | 0.312
AGUGAGUACACUGGUAAUUACCAGUGUGGUCACU [SHAPE_invivo_SARS-CoV-2_Motif_119] | 0.0249 | -1.01 | 0.0351 | -0.332
UCUUUAUUUGACAUGAGUAAAUUUCCCCUUAAAUUAAGGGGUACUGCUGUUAUGUCUUUAAAAGA [SHAPE_invitro_SARS-CoV-2_Motif_387] | 0.0957 | -0.575 | -0.896 | -0.894
CUGUUUGGAUGACAG | -0.753 | -1.01 | -0.461 | -0.871
CUGCAGAUGCAG [IAV_invivo_HA_4_Motif_2+IAV_invivo_HA_4_Motif_2] | -0.317 | -1.28 | -0.112 | -0.419
UGGGGUUGGGGUUGGGGUUGGGGUUGGGGUUGGGGU [G4_r(UGGGGU)6] | 8.72 | 4.95 | 7.92 | 6.75
UGGCCAUGGUACAUUUGGCUA | -0.0742 | -0.59 | 0.537 | 0.286
UCAAUUAUUAUAAGAAAGUUGA | -0.0592 | -0.425 | 0.154 | 0.0296
GUUAAAAUGUUUGAUGCUUACGUUAAUACGUUUUCAUCAACUUUUAAC | -0.247 | -1.35 | -1.02 | -1.54
ACACGGUGUUUAAACCGUGU | -0.00656 | -1.15 | 0.59 | 0.0341
GAUCUCUUGUAGAUC | 0.0231 | -0.498 | 0.682 | 0.342
GGGUGGGUGGGUGGGUGGGUGGGUGGGUGGGU [G4_r(GGGU)8] | 10.2 | 5.15 | 9.08 | 7.37
GGUGACAACAACC [IAV_invivo_M1_M2_7_Motif_11+IAV_invivo_M1_M2_7_Motif_11] | -0.31 | -0.457 | -0.283 | -0.366
GUGCCACUCCAUGGCAC | -0.276 | -0.862 | 0.641 | 0.324
GCACUGACUUGCUUUAGCACUCAAUUUGCUUUUGCUUGUCCUGACGGCGUAAAACACGUCUAUCAGUUACGUGC | -0.234 | -0.056 | 0.239 | 0.281
GACAUUUUAUCUUACUAAUGAUGUUUCUUUUUUAGCACAUAUUCAGUGGAUGGUUAUGUU [DMSMaPseq_invitro_SARS-CoV-2_Motif_175] | 0.317 | 0.0287 | 0.0838 | 0.455
GCUUUAGUCUACUUCUUGCAGAGUAUAAACUUUGUAAGAAUAAUAAUGAGGC [SHAPE_invitro_SARS-CoV-2_Motif_467] | -0.169 | -0.561 | 0.0529 | 0.0166
CUUAGCUGUCUUUGAUAAAAAUCUCUAUGACAAACUUGUUUCAAGCUUUUUGGAAAUGAAGAGUGAAAAGCAAGUUGAACAAAAGAUCGCUGAG [SHAPE_invivo_SARS-CoV-2_Motif_73] | 0.0166 | 0.552 | 0.216 | 0.0191
UAGUUACACGGUGUUUAAACCGUGUUUGUACUA [SHAPE_invivo_SARS-CoV-2_Motif_139] | -0.496 | -1.11 | -0.83 | -1.15
ACAAGAUGAUAAGAAAAUCAAAGCUUGU | -0.459 | -0.969 | -0.879 | -1.1
GUUCUCUAUGAGAAC | -0.504 | -1.47 | 0.38 | 0.0284
GUUUGUCUUAGUGGUUUAGAUUCUUUAGACACCUAUCCUUCUUUAGAAACUAUACAAAU | 0.0248 | -0.533 | -0.000875 | 0.0216
ACCUCGUCUAUGCUUUAAGGCAUUUUGAUGAAGGU | -0.357 | -0.876 | 0.13 | -0.152
UCCUUACAUGGA | -0.672 | -1.16 | -0.557 | -0.321
GAUGCUGUUGUGUGUUUCAAUAGCACUUAUGCAUC | -0.542 | -0.931 | -0.907 | -0.937

Sequence | pull-down binding Z-score [1] | pull-down binding Z-score [2] | pull-down binding Z-score [3] | pull-down binding Z-score (TO-N3 (biotin conjugate))
GUUAAAAUAUGAC [SHAPE_invivo_SARS-CoV-2_Motif_271] | -0.534 | -0.892 | -0.672 | -0.93
UCCUUUGACAUGAGUAAUGAAGGAUCUUAUUUCUUCGGAGACAAUGCAGAGGA [IAV_invivo_NP_5_Motif_26+IAV_invivo_NP_5_Motif_26] | -0.286 | -0.0358 | -0.638 | -0.711
GCGCGGCCAGAAACUGGCAGCGC [mismatch-GA] | -0.798 | -1.21 | -0.773 | -1.33
UAAAGCCACGUAUAAACCAAAUACCUGGUGUAUACGUUGUCUUUG | -0.279 | -0.691 | -0.523 | -0.75
CAGGCCAUCACAAAUGCCACAGCUUGAGUAAACUGUGCAGCCUG [3-way model-2_DENV2] | -0.224 | -0.0801 | -0.433 | -0.464
ACGACGACUACUAGCGUGCCUUUGUAAGCACAAGCUGAUGAGUACGAACUUAUGUACUCAUUCGUUUCGGAAGAGACAGGUACGUUAAUAGUUAAUAGCGU | -0.333 | -0.217 | -0.319 | -0.304
UCCUGUGGUAAUUUUAAAGUUACAAAAGGA | -0.424 | -0.669 | -0.823 | -0.795
CAAGGACCUGCCUAAAGAAAUCACUGUUGCUACAUCACGAACGCUUUCUUAUUACAAAUUGGGAGCUUCGCAGCGUGUAGCAGGUGACUCAGGUUUUG [DMSMaPseq_invitro_SARS-CoV-2_Motif_486] | -0.309 | 0.921 | -0.688 | -0.158
UAAAUUUUUGGCUUUGUGUGCUGACUCUAUCAUUAUUGGUGGAGCUAAACUUAAAGCCUUGAAUUUA | 0.0426 | -1.2 | -0.848 | -0.962
CCUUAUAAUUCACAGAAUGCUGUAGCCUCAAAGAUUUUGGGACUACCAACUCAAACUGUUGAUUCAUCACAGG [DMSMaPseq_invitro_SARS-CoV-2_Motif_319] | -0.324 | 0.0157 | -0.541 | -0.341
AACUGAAAGUAAACCUUCAGUU | -0.384 | -1.3 | -0.172 | -0.401
GUUAUGUUGAUACACCUAAU [DMSMaPseq_invitro_SARS-CoV-2_Motif_328] | -0.132 | -0.329 | -0.598 | -0.585
GGCGUCUCAAGGCACC [IAV_invivo_NP_5_Motif_2+IAV_invivo_NP_5_Motif_2] | -0.687 | -0.084 | 0.308 | 0.151
CAGAGUCGUAUUUGUCUUAUGGGCACAUGGCUUUG [SHAPE_invivo_SARS-CoV-2_Motif_350] | -0.171 | -0.215 | 0.361 | 0.131
AAGGCUGAUGAAACUCAAGCCUU | -0.269 | -0.106 | -0.506 | -0.413
CAUGCUGAUUUUGACACAUGGUUUAGCCAGCGUG [DMSMaPseq_invitro_SARS-CoV-2_Motif_160] | -0.409 | -0.276 | -0.604 | -0.64
AUACCACUUAUGUACAAAGGACUUCCUUGGAAUGUAGUGCGUAU | -0.319 | 0.76 | -0.527 | -0.207
GUGUAUGCUGCUGACCCUGCUAUGCACGCUGCUUCUGGUAAUCUAUUACUAGAUAAACGCACUACGUGCUUUUCAGUAGCUGCAC | 0.434 | 0.698 | 0.39 | 0.772
GGAAUUUGAACC [IAV_invivo_PB2_1_Motif_28+IAV_invivo_PB2_1_Motif_28] | -0.147 | -0.514 | 0.293 | 0.0885
GCGCAGCCAGAAACUGGCAGCGC [mismatch-AA] | -0.365 | -0.354 | -0.468 | -0.528
ACCUAAAUAGAGGU | -0.686 | -1.63 | -0.82 | -1.22
UACAAUUUGCCUAUGCCAACAGGAAUAGGUUUUUGUA | -0.176 | -1.3 | 0.38 | -0.122
UGCAACGAUACCGAUACAAGCCUCACUCCCUUUCGGAUGGCUUAUUGUUGGCGUUGCA | -0.134 | -0.000368 | -0.475 | -0.366
AUCUUAGGGAAUUUGUGUUUAAGAAUAUUGAUGGUUAUUUUAAAAUAUAUUCUAAGCACACGCCUAUUAAUUUAGUGCGUGAUCUCCCUCAGGGU | -0.113 | -0.222 | -0.775 | -0.897
UAGAGUGCUAUCUA [SHAPE_invitro_SARS-CoV-2_Motif_352] | -0.553 | -0.86 | -0.809 | -0.957
CUAGUUGUGAUGCAAUCAUGACUAG | -0.444 | -1.39 | -0.351 | -0.883
